Data from article PMC5048593.
Values belong to the substance of their own block, whether it stands above or below them.

How the values were obtained:
Assay in all cases: ITC
[1] = biological target: p107^ΔPL containing six mutations to the Rb sequence (p107^6x) (human) (UniProt P28749)
[2] = biological target: p107^ΔPL E560H (human) (UniProt P28749)
[3] = biological target: p107^ΔPL H797R (human) (UniProt P28749)
[4] = biological target: p107^ΔPL V490K (human) (UniProt P28749)
[5] = biological target: phosphorylated p107^ΔPL982 (human) (UniProt P28749)
[6] = biological target: Rb pocket domain lacking its large internal loop (Rb^ΔPL: residues 380–787 with 581–642 deleted) (human) (UniProt P06400)

- fold higher affinity than p107^ΔPL [1]: 3 fold
Substance: E2F1 transactivation domain (E2F1^TD) (domain or fragment)

- fold increase in affinity over p107^ΔPL [2]: 3 fold
- fold increase in affinity over p107^ΔPL [3]: 3 fold
- fold increase in affinity over p107^ΔPL [4]: 3 fold
- fold higher affinity than p107^ΔPL [1]: 24 fold
Substance: E2F2 transactivation domain (E2F2^TD) (domain or fragment)

- fold reduction in affinity against unphosphorylated p107^ΔPL982 [5]: 3 fold
Substance: E2F4 transactivation domain (E2F4^TD) (domain or fragment)

- fold increase in affinity over wild-type E2F4^TD [6]: 5 fold
Substance: E2F4^TD N395G (domain or fragment)
